From publication PMC7538587
Values joined by “and” are separate entries in the source; they are usually repeats but may differ in a detail not shown here. Identical values can stand only once.

Experiments:
[1] = target: SALT protein (Oryza sativa L. (Pusa basmati-1)) (UniProt A2WPN7); assay: SDS-PAGE without heat denaturation; purified SALT, 1 mg/ml, 12% gel, with SDS and BME, not heated; confirmed by immunoblotting
[2] = target: SALT protein (Oryza sativa L. (Pusa basmati-1)) (UniProt A2WPN7); assay: SEC; Superdex 200 10/300 GL, 200 µl of 5 mg/ml SALT, 20 mM each of mannose and galactose in sample and buffer; calibrated with marker proteins
[3] = target: SALT protein (Oryza sativa L. (Pusa basmati-1)) (UniProt A2WPN7); assay: SAXS; SALT freshly eluted from gel filtration, 5, 11 and 22 mg/ml, 20 °C; molecular weight from SAXS about 32.2-33.4 kDa

- stoichiometry N [1]: 2 and 4
- stoichiometry N [2]: 2
- stoichiometry N [3]: 2
Substance: SALT protein (from UniProt A2WPN7 1-145) (natural protein)
